Results published in paper PMC8670242, “Functional Characterization and Structural Insights Into Stereoselectivity of Pulegone Reductase in Menthol Biosynthesis” (Frontiers in Plant Science, 2021).

Columns and labels:
[1] = substrate: CC(C)=C1CC[C@@H](C)CC1=O; experiment: chiral GC of menthone/isomenthone formed, Michaelis-Menten; type: biochemical, Mentha x piperita; conditions: 10 mM NADPH with glucose-6-phosphate/G6PDH regeneration, pH 7.5, 31 °C, n-hexane overlay
[2] = substrate: CC(C)=C1CC[C@H](C)CC1=O; experiment: as above; type: biochemical, Mentha x piperita; conditions: 10 mM NADPH with glucose-6-phosphate/G6PDH regeneration, pH 7.5, 31 °C, n-hexane overlay

B1: MpPR (Mentha x piperita) (protein)
chain: MVMNKQIVLNNYINGSLKQSDLALRTSTICMEIPDGCNGAILVKNLYLSVNPYLILRMGKLDIPQFDSILPGSTIVSYGVSKVLDSTHPSYEKGELIWGSQAGWEEYTLIQNPYNLFKIQDKDVPLSYYVGILGMPGMTAYAGFFEICSPKKGETVFVTAAAGSVGQLVGQFAKMFGCYVVGSAGSKEKVDLLKNKFGFDDAFNYKEESDYDTALKRHFPEGIDIYFDNVGGKMLEAVINNMRVHGRIAVCGMVSQYSLKQPEGVHNLLKLIPKQIRMQGFVVVDYYHLYPKFLEMVLPRIKEGKVTYVEDISEGLESAPSALLGVYVGRNVGNQVVAVSRE
notes: pET28a His-tag fusion, E. coli BL21(DE3), Ni-NTA and gel filtration; homodimer; EC 1.3.1.81
- Km [1]: 3.00 µM
- kcat [1]: 863.66 10^-4 s^-1
- Km [2]: 8.63 µM
- kcat [2]: 1595.06 10^-4 s^-1
